Results published in patent US20210317229A1.

target: Recombinant EpCAM (R&D systems), conjugated with Alexa Fluor 647 (UniProt P16422); experiment: flow cytometry, AF647-labelled recombinant EpCAM at 360nM on HEK293T cells expressing the myc-tagged CAR; ratio to anti-myc-FITC signal
UniProt P16422, sequence (P16422 24-265 limits assumed): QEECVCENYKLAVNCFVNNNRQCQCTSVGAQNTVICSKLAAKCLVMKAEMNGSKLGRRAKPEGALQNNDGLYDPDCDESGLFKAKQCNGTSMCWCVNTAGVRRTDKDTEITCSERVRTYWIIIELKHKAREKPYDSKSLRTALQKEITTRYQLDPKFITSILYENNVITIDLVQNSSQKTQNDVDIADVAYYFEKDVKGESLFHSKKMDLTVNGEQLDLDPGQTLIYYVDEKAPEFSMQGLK

Row | Substance | MFIAF647/MFIFITC
1 | CAR containing Y6F scFv (UBS-54 variant, CDR-H3 DPFLHF) (from UniProt P01732 138-182; P10747 153-220; P20963 52-164) | 0.239
2 | CAR containing D1A scFv (UBS-54 variant, CDR-H3 APFLHY) (from UniProt P01732 138-182; P10747 153-220; P20963 52-164) | 0.246
3 | CAR containing Y6L scFv (UBS-54 variant, CDR-H3 DPFLHL) (from UniProt P01732 138-182; P10747 153-220; P20963 52-164) | 0.031
4 | CAR containing Y6A scFv (UBS-54 variant, CDR-H3 DPFLHA) (from UniProt P01732 138-182; P10747 153-220; P20963 52-164) | 0.018

Further lines, results first:

Row | MFIAF647/MFIFITC | Substance
5 | 0.016 | CAR containing F3A scFv (UBS-54 variant, alanine at CDR-H3 position 3) (from UniProt P01732 138-182; P10747 153-220; P20963 52-164)
6 | 0.026 | CAR containing Y6V scFv (UBS-54 variant, CDR-H3 DPFLHV) (from UniProt P01732 138-182; P10747 153-220; P20963 52-164)
7 | 0.302 | CAR containing L4A scFv (UBS-54 variant, CDR-H3 DPFAHY) (from UniProt P01732 138-182; P10747 153-220; P20963 52-164)
